This note sets out measurements from the nanobody polyreactivity screen of Harvey et al. (2022).

A short description of this data set: yeast display, Sf9 membrane polyspecificity reagent, FACS + sequencing; frameworks hold sequencing errors. The method in brief:
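Genes from sorted yeast were amplified by colony PCR, read by MiSeq 2 × 250 sequencing and filtered on CDR length. These cells carried a synthetic nanobody library in Saccharomyces cerevisiae BJ5465 and were sorted by FACS into low and high (top ~1%) gates on anti-HA and streptavidin fluorescence. Polyreactivity is labelled according to the gate of origin.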
Turning to “QVQLVESGGGLVQAGGSLRLSCAASGSTFDDYAMVWYRQAPGKDREFVAAISFSGDSTYYADSVKGRFTISRDNAKNTVYLQMNRLKPEDTAVYYCAAEVPAEENGYAYDYWGQGTQVTVSS”, the “polyreactivity (PSR sort gate)” value is on record as “low polyreactivity”.
Under “QVQLVESGGGLVQAGCSLRLSCAASGRIFRGNAMGWYRQAPGKERELVARITGNDGDTYYADSVKGRFTISRDNAKNTVYLQMNSLNPEDTAVYYCATDTSSYRRRYYYWGQGTQVTVSS” stands “low polyreactivity”; under “QVQLVESGGGLVHAGGSLRLSCAASGSIFKPYVMGWYRQAPGKERELVAAITTSGVRTYYADSVKGRFTISRDNAKNTVYLQMNSLKPEDTAVYYCATRRWSWPQFRTGDYWGQGTQVTVSS”, “high polyreactivity”.
Next, “QVQLVESGGGLVQAGGSLRLSCAASGRIFIPNTMGWYIQAPGKERELVAAITWSGSSTYYADSVKGRFTISRDNAKNTVYLQMNSLKPEDTAVYYCAAYPSCYVVVSKGDYWGQGTQVTVSS”: “high polyreactivity”.
In the case of “QVQLVESGGGLVQAGGSLRLSCAASGLIFYQYAMGWYRQAPGKESELVAAISRSGGRTNYADSVKGRFTISRDNAKNTVYLQMNSLKPEDTAVYYCNAVHYFLYGYYSWGQGTQVSVSS”, the “polyreactivity (PSR sort gate)” value was “high polyreactivity”.
Next, “QVQLVESGGGLVQAGGSLRLSCAASGNTFTRNAMGWYRQAPGKERELVAAITGRGGTYYADSVKGRFTISRDNAKNTVYLQMNSLKPEDTAVYYCAAASVTRRDLDYWGQGTQVTVSS”: “high polyreactivity”; “QVQLVETGGGLVQAGVSLRLSSAASGITIGKNAMGWYRQEPGKESELVAAITRDGGTNYADSVKGRFTISRDNSKNTVYLQMNRLKPEDTAVYYCAKRAYFYYGRYDYWGQGTQVTVSS”: “low polyreactivity”; “QVQLVESGGGLVQAGGSLRLSCAASGLIIYYYAMGWYRQAPGKERELVAAISGSSGASTYYADSVKGRFTISRVNAKNTVYIQMNSLKPEDSAVYYCAADRGYWRYDYWGQGTQVTVSS”: “low polyreactivity”.
Under “QDQLVESGGGLVQAGGSLRLSCAASGSIFFLYAMGWYRQAPGKERELVAAIRLSGGSTYYADSVKGRFTISRDNAKNTVYLQMNSLKPEDTAVYYCAAESAAASAVYSVEYDYWGQGTQVTVSS” stands “low polyreactivity”; under “QVQLVESGGGLVQAGGSLRLSCAASGYIFRSYVMGWYRQAPGKERELVAAISVSGGRTYYADSVKGRFTMSRDNAKNTVYLQMNSLIPEDTAVYYCAAYLGRRGQEMDYWGQGTQVTVSS”, “high polyreactivity”.
Under “QVQLLESGGGLVQAGGSLRLSCAASGGTFRPYAMGWYRQAPGKERELVAAISFTGSTYYADSVKGRFTISRDNAKNTVYLQMNSLKPEDTAVYYCAKDFWYPPRFDYWGQGTQVTVSS” stands “low polyreactivity”; under “QVQLVESGGGLVQAGGSLRLSCAASGFTFQYNAMGWYRQAPGKERELVAAITWTGTSTYADSVKGRFTISRDNAKNTVYLQLNSLKPEDTAVYYCAARYYAPRWFSYDYWGQGTQVTVSS”, “low polyreactivity”; under “QVQLVESGGGLVQAGGSLRLSCAASGITFERNAMGWYRQAPGKERELVAAITGRGTSTYADSVKGRFTISRDNAKNTVYLQMNSLKPEDTAVYYCAAVGWFADFLFSDINGYYWGQGTQVTVSS”, “low polyreactivity”.
For the sequence “QDQLVESGGGLVQAGGSLRLSCAASGSTFYIYAMGWYRQAPGQERELVARISGSRGSTYYADSVKGRFTISRDNAKNTVYLQMNSLKPEDTAVYYCAADDIYNYYQYYAFPYYRYDYWGQGTQVTVSS”, the “polyreactivity (PSR sort gate)” value is “low polyreactivity”.
Turning to “QGQLVESGGGFVQAGGSLRLSCAASGRTIEGNAMGWYRQPPWKERELVAGIRQSGDSTYYADSVKGRFTISRDNAKNTVYLQMNSLKAEETAVFYSNSRAFPFGTGVQGFGFGYWGQGTQVTVSS”, the “polyreactivity (PSR sort gate)” value is on record as “low polyreactivity”.
For “QVQLVESGGGLVQAGGSLRLSCAASGSTFSKYAMGWYRPAPGKERELVAAISSRGGSTYYADSVKGRFTISRDNAKNTVYLQMNSLKPEDTAVYYCATYYVYKLYYWGQGTQVTVSS”, the “polyreactivity (PSR sort gate)” value is recorded as “high polyreactivity”.
Under “QVQLVESVGCLVQAGGSLRLSCAASGRIFTSNAMGWYRQAPGKERELVAAITRRGGTTYYADSVKGRFTISRDNSKNTVYFQMNSLNPEDTAVYYCATIITVASWYDYWGQGTQVTVSS” stands “low polyreactivity”.
Regarding “QVQLVDSVVGLVQAGGSLRLSFAASGYTYHYYAMGWYRQAPGKETELVAAISGSGSSTYYADSVKGRFTISRDNAKNTVYLQMNSLKPEDTAVYYCNARGHYPRARFGYKSGSDRYWGQGTQVTVSS”, the “polyreactivity (PSR sort gate)” value is reported as “high polyreactivity”.
Next, “QVQLVESGGGLVQEGGILPLSCAASGRIFGTYAMGWYRQAPGKERELVAAISSSGTSTYYADSVKGRFTISRDNAKNTVYLPMNSLKPEDTAVYYCAARYPRTAYDYWGQCTQVTVSS”: “low polyreactivity”; “QVQLVESRGGLVQAGGSLRLSCAASGITFTIYAMGWYRQAPGKERELVAAITWTSDITHYADSVKGRFTISRDNAKNTVYLQMISLKPEDTAVYYCAATTWDEYDYWGQGTQVTVSS”: “high polyreactivity”.
Consider “QVQRVESGGGLVQAGGSLRLSCAASGFTSLIYAMGWYRQAPGKESELVATITWGGGSTYADSVKGRFTISRDNAKNTVYLQMNSLKPEDTAVFYCIADIYDSWDYATVYSDRYDYWGQGTQVTVSS”, for which the “polyreactivity (PSR sort gate)” value was “low polyreactivity”.
Turning to “QVQLVESGGGLVQAGGSLRLSCAASGSTFYTNPMGWYRQAPGKEREFVAAISGSGSSTYADSVKGRFTISRDNAKNTVYLQMNSLKPEDTAVYYCAADWFILRTDYYWGQGTQVTVSS”, the “polyreactivity (PSR sort gate)” value is on record as “low polyreactivity”.
Next, “QVQLVDSGGGLVQASGSLRLSCAASGSIFLFYAMGGYRQAPGKERQVVAAITSGGRTYYADSVKGRFTISRDNAKNTVYLQMNSLKPEDTAVYYCNAVRFYSIGLGQDDYWGQGTQVTVSS”: “low polyreactivity”.
Next, “QVQLVESGGGLVQAGGSLRLSCAASGWYRQAPGKERELVAAITYSGGSTYYADSVKGRFTISRDNAKNTVYLQMNSLKPEDTAVYYCAKQGLWIFVVVEMDYWGQGTQVTVSS”: “low polyreactivity”.
Under “QVQLVESGGGLDQARGTLRLSCAASGSTILGNAMGWYRHAPGKERELVAGITSGGTTNYADSVKGRFTISRVNAKNNVYLQMTSLKPEDTSVYYCNAGGHLEMNYWGKGTQVTVSS” stands “low polyreactivity”.
With “QVQLVESGGGLVQAGGSLRLSCAASGSIFQIYAMGWYRQAPGKERELVATISSGGRTTYADSVKGRFTISRDNAKNSVYLQMNSLKPEDTAVYYCAAKLEWLSHYYYWGQGTQVTVSS”, the “polyreactivity (PSR sort gate)” value was “low polyreactivity”.
Next, “QVQLVESGGGLVQAGGSLRLSCAASGFTFTRYTMGWYRQAPGKERELVAHITSGDSTNYADSVKGRFTISRDNAKNTVYLQMNSLKPEDTAVYYCNAEVKGFFYDYDYWGQGTQVTVSS”: “low polyreactivity”; “QGQLVESRGGLVQAGGSLRLSCAASGFNLAYYAMGWYRQAPGKERELVAAISIGSSTDYADSVKGRFTISRDNAKNTVYLQMNSLKPEDTAVFYCAKRGPQVWTFDYDSWGQGTQVTVSS”: “low polyreactivity”.
In the case of “QVQLVESGGGLVQAGGSLRLSCAASGSIFQLNAMGWYRQAPGKERELVAAITWSGDSTYYADSVKGRFTISRDNAKNTVSLQMNSRKPEDTAVYYCAADVLTTPPPREFEYWGQGTQVTVSS”, the “polyreactivity (PSR sort gate)” value is given as “high polyreactivity”.
On to “QVQLVESGGGLVQAGGSLRLSCAASGSIFVIYAMGWYRQAPGKERELVAAITYSGGSTYYADSVKGRFTISRDNAKNTVYLQMNSLKPEDTAVYYCAAVRDSRYYDYDYWGQGTQVTVSS”, for which the “polyreactivity (PSR sort gate)” value is “low polyreactivity”.
Under “QVQLVDSGGGLVQGGGRLRLSCAASGFTLQSNAMGWYRQAPGKERELVAAISFRGGSTYYADSVKGRFTISRDNAKNTVYLQKNSLKPEDTAVYYCAADFYVHSAYYYGYWGQGTQVTVSS” stands “low polyreactivity”.
Next, “QVRRVESGGGLVQAGGSLRLSCAASGSTFPWYAMGWYRQAPGTERELVASITSGTTTNYADSVKGRFTISRDNAKNTVYLEMNSLKPEDTAVYYCAASWVYPYDYWGQGTQVTVSS”: “low polyreactivity”.
Under “QVQLVESGGGLVQAGGSLRLSCAASGTFVYYAMGWYRQAPGKERELVAVISLNGGITYYADSVKGRFTISRDNAKNTVYLQMNSLKPEDTAVYYCNAQFYNSGWSFKYYYWGQGTQVTVSS” stands “low polyreactivity”.
As to “QVQLVESGGGLVQAGGSLRLSCAASGSTLTYNAMGWYRQAPGKERELVAAIDWDGDTTYYADSVKGRFTISRDNAKNTVYLQMNSLKPEDTAVYYCAAEFYSLGKAIYEYWGQGTQVTVSS”, the “polyreactivity (PSR sort gate)” value is “high polyreactivity”.
Consider “QVQLVESGGGLVQAGGSLRLSCAASGFIFYRYAMGWYRQAPGKERELVAAISRSGGTTYYADSVKGRFTISRDNAKNTVYLQMNSLKPEDTAVYYCNVKRGTIGGYYYWGQGTQVTVSS”, for which the “polyreactivity (PSR sort gate)” value is recorded as “high polyreactivity”.
Next, “QVQLVESGGGLVQAGGSLRLSCAASGSTYFRNAMGWYRQAPGKERELVADISASGGSTYYADSVKGRFTISRDNAKNTVYLQMNSLKPEDTAVYYCNALYIYFYNYLTIVYWGQGTQVTVSS”: “low polyreactivity”.
For the sequence “QVQLVESGGGLVQAGGSLRLSCAASGRIFAYYAMGWYRQAPGKERELVASISSSGVSTYYADSVKGRFTISRDNAKNTVYLQMNSLKPEDTAVYYCAARQFSWDSQRYRHRYDYWGQGTQVTVSS”, the “polyreactivity (PSR sort gate)” value is “high polyreactivity”.
With “QVQLVESGGGLVQAGGSLRISCAASGITFYFNAMGWFRQAPGKERDLVAVITSVGSTNYADSVKGRFTISRDNAKNTDYIQMNSLKPEDTAVYYCYRTSYVKTPTKRYNYWGQGTQVTVSS”, the “polyreactivity (PSR sort gate)” value is “low polyreactivity”.
Under “QVQLVESGGGLVQAGGSLRLSCAASGRTFGTNTMGWYRQAPGKERELVAAIRRGGGTNYADSVKGRFTISRDNAKNTVYLQMNSLKPEDTAVYYCAAVRWNTGVGYYYWGQGTQVTVSS” stands “high polyreactivity”.
Next, “QDQHVESGGGLVQAGGSLRLSCAASGRTFVFYAMGWYRQAPGKERELLAVIRVIGGSTKYADSVKGRFTISRDNAKNTVYLQMNSLKPVDTAVYYCAADGVVVVAAYMYYWGQGTQVTVSS”: “low polyreactivity”.
Under “QVQLQESGGGLVQAGGSLRLSCAASGSIFKVVDMGLYRQAPAKEREFVATIGEGGNTYYADSVKGRFTISRDNAKNTVYLQMNSLKTEDTAVYFYAVVLGTSYRYTYWGQGTKVTVSS” stands “low polyreactivity”.
